Publication PMC7467569, “The Progesterone 5β-Reductase/Iridoid Synthase Family: A Catalytic Reservoir for Specialized Metabolism across Land Plants” (ACS Chemical Biology, 2020)

Key:
Assay in all cases: purified protein
purified protein [1] = substrate: C/C(C=O)=C\CC/C(C)=C/C=O; format: biochemical, Catharanthus roseus; settings: 250 μM NADPH, 50 mM HEPES/NaOH pH 7.0, 100 mM NaCl, 25 °C, 0.1% tetrahydrofuran
purified protein [2] = substrate: C/C(C=O)=C\CC/C(C)=C/C=O; format: biochemical, Coccomyxa subellipsoidea; settings: 250 μM NADPH, 50 mM HEPES/NaOH pH 7.0, 100 mM NaCl, 25 °C, 0.1% tetrahydrofuran
purified protein [3] = substrate: CC(=O)[C@H]1CC[C@H]2[C@@H]3CCC4=CC(=O)CC[C@]4(C)[C@H]3CC[C@]12C; format: biochemical, Coccomyxa subellipsoidea; settings: 250 μM NADPH, 50 mM HEPES/NaOH pH 7.0, 100 mM NaCl, 25 °C, 1.5% ethanol
purified protein [4] = substrate: C/C(C=O)=C\CC/C(C)=C/C=O; settings: 250 μM NADPH, 50 mM HEPES/NaOH pH 7.0, 100 mM NaCl, 25 °C, 0.1% tetrahydrofuran
purified protein [5] = substrate: CC(=O)[C@H]1CC[C@H]2[C@@H]3CCC4=CC(=O)CC[C@]4(C)[C@H]3CC[C@]12C; settings: 250 μM NADPH, 50 mM HEPES/NaOH pH 7.0, 100 mM NaCl, 25 °C, 1.5% ethanol

B1: Catharanthus roseus 5 (PRISE5, ISY) (Catharanthus roseus) (protein)
chain: MSWWWKRSIGAGKNLPNQNKENGVCKSYKSVALVVGVTGIVGSSLAEVLKLPDTPGGPWKVYGVARRPCPVWLAKKPVEYIQCDVSDNQETISKLSPLKDITHIFYVSWIGSEDCQTNATMFKNILNSVIPNASNLQHVCLQTGIKHYFGIFEEGSKVVPHDSPFTEDLPRLNVPNFYHDLEDILYEETGKNNLTWSVHRPALVFGFSPCSMMNIVSTLCVYATICKHENKALVYPGSKNSWNCYADAVDADLVAEHEIWAAVDPKAKNQVLNCNNGDVFKWKHIWKKLAEEFGIEMVGYVEGKEQVSLAELMKDKDQVWDEIVKKNNLVPTKLKEIAAFWFADIAFCSENLISSMNKSKELGFLGFRNSMKSFVSCIDKMRDYRFIP
notes: codon-optimized gene from earlier study in pOPINF, N-terminal His6 tag (no cleavage told), E. coli
Km (purified protein [1]): 8.5 ± 1.5 µM

B2: Coccomyxa subellipsoidea PRISE (Coccomyxa subellipsoidea C-169) (protein)
chain: GYVALIAGVTGVTGRNLALHLQNCDRWDAVYGGSRRPCGLGGKVKDLRMDLDNKTSLVDTLKGAQDVTHLFFCAYRPTESAATDVTTNFGMFKNVIEAGEGAGLKLKHVSFLSGTKWYGVHIGPVKTPSREDDPRAMSPNFYYDMEDYCIARVTKGADWTWSSVRPNPVCGFSTGSAMNLTMTIAVYASICKELGLPFRFPGSPQAYNVLLEVVDADLLACSMEYISTQPHAGNTSYNVSNGDVFRWSEVWPKLAAFFELPLAEPQKFSMTTMLAYHECVWQKLVEKHGLSKEVASYKDVATWGFGDWVFGQEKDWFSDVNKLRRTGFQEQNLDSAEMFLRQFKELRAAKLIP
notes: full-length synthetic gene in pOPINF, N-terminal His6 tag (no cleavage told), E. coli
Km (purified protein [2]): 7.0 ± 1.6 µM
kcat (purified protein [2]): 0.025 ± 0.001 s⁻¹
kcat/Km (purified protein [2]): 3580 M⁻¹ s⁻¹
Km (purified protein [3]): 23.6 ± 5.8 µM

B3: Arabidopsis thaliana 1 (PRISE1) (Arabidopsis thaliana) (protein)
chain: SWWWAGAIGAAKKKLDEDEPSQSFESVALIIGVTGIVGNSLAEILPLSDTPGGPWKVYGVARRPRPTWNADHPIDYIQCDVSDAEDTRSKLSPLTDVTHVFYVTWTNRESESENCEANGSMLRNVLQAIIPYAPNLRHVCLQTGTKHYLGPFTNVDGPRHDPPFTEDMPRLQIQNFYYTQEDILFEEIKKIETVTWSIHRPNMIFGFSPYSLMNIVGTLCVYAAICKHEGSPLLFPGSKKAWEGFMTASDADLIAEQQIWAAVDPYAKNEAFNCNNADIFKWKHLWKILAEQFGIEEYGFEEGKNLGLVEMMKGKERVWEEMVKENQLQEKKLEEVGVWWFADVILGVEGMIDSMNKSKEYGFLGFRNSNNSFISWIDKYKAFKIVP
Km (purified protein [4]): 41.8 ± 2.75 µM
kcat (purified protein [4]): 0.155 ± 0.004 s⁻¹
kcat/Km (purified protein [4]): 3710 M⁻¹ s⁻¹
Km (purified protein [5]): 6.0 ± 2.5 µM

B4: Arabidopsis thaliana 2 (PRISE2) (Arabidopsis thaliana) (protein)
chain: GSENGSLMRRNEVDENVALIFGVTGLVGREIVKTLLMSKPGWRIYGVARNPEINSMTKMYNFISCDLLNASETKQRLSPLQDIVSHVFWVTWSGEFPLDTDECCVQNKTMLMNALDAILPNAKRLKHFSLQTGMKHYVSLVEETMARGEGSSLYYYSEECPRKSSGKNFYYVLEDLLKEKITRSSVVWSVQRPGLLMGSSSRTLYNFMGSLCVYGAMCKYLNLPFVFGGTRECWEESYIDGSDSNLVAEQHIFAATSGKVREKGEAFNAINGVGFTWKEIWPEIGKKLGVQVNETTMFDEGFWFGREMVERKHVWDEIVVKEKLVRTEIEDLANWYFLDALFRCPFKLLGKREKVDRFGFKRKYRTLDSVLYWIDVMRDEKLIPL
Km (purified protein [5]): 5.7 ± 2.3 µM
